# From PMC4374719, “Herpesviral G Protein-Coupled Receptors Activate NFAT to Induce Tumor Formation via Inhibiting the SERCA Calcium ATPase” (PLoS Pathogens, 2015)
# B1: sarco/endoplasmic reticulum calcium ATPase 2 (SERCA2), endogenous in HUVEC (enzyme, human (endogenous in HUVEC), UniProt P16615 1-1042, looked up)
# chain: MENAHTKTVEEVLGHFGVNESTGLSLEQVKKLKERWGSNELPAEEGKTLLELVIEQFEDLLVRILLLAACISFVLAWFEEGEETITAFVEPFVILLILVANAIVGVWQERNAENAIEALKEYEPEMGKVYRQDRKSVQRIKAKDIVPGDIVEIAVGDKVPADIRLTSIKSTTLRVDQSILTGESVSVIKHTDPVPDPRAVNQDKKNMLFSGTNIAAGKAMGVVVATGVNTEIGKIRDEMVATEQERTPLQQKLDEFGEQLSKVISLICIAVWIINIGHFNDPVHGGSWIRGAIYYFKIAVALAVAAIPEGLPAVITTCLALGTRRMAKKNAIVRSLPSVETLGCTSVICSDKTGTLTTNQMSVCRMFILDRVEGDTCSLNEFTITGSTYAPIGEVHKDDKPVNCHQYDGLVELATICALCNDSALDYNEAKGVYEKVGEATETALTCLVEKMNVFDTELKGLSKIERANACNSVIKQLMKKEFTLEFSRDRKSMSVYCTPNKPSRTSMSKMFVKGAPEGVIDRCTHIRVGSTKVPMTSGVKQKIMSVIREWGSGSDTLRCLALATHDNPLRREEMHLEDSANFIKYETNLTFVGCVGMLDPPRIEVASSVKLCRQAGIRVIMITGDNKGTAVAICRRIGIFGQDEDVTSKAFTGREFDELNPSAQRDACLNARCFARVEPSHKSKIVEFLQSFDEITAMTGDGVNDAPALKKAEIGIAMGSGTAVAKTASEMVLADDNFSTIVAAVEEGRAIYNNMKQFIRYLISSNVGEVVCIFLTAALGFPEALIPVQLLWVNLVTDGLPATALGFNPPDLDIMNKPPRNPKEPLISGWLFFRYLAIGCYVGAATVGAAAWWFIAADGGPRVSFYQLSHFLQCKEDNPDFEGVDCAIFESPYPMTMALSVLVTIEMCNALNSLSENQSLLRMPPWENIWLVGSICLSMSLHFLILYVEPLPLIFQITPLNVTQWLMVLKISLPVILMDETLKFVARNYLEPGKECVQPATKSCSFSACTDGISWPFVLLIMPLVIWVYSTDTNFSDMFWS
# notes: SERCA2 of human umbilical vein endothelial cells; source: endogenous, HUVEC, in fixed cells
# Molecular target: T1, KSHV G protein-coupled receptor (kGPCR), stably expressed in HUVEC (Kaposi's sarcoma-associated herpesvirus …, UniProt Q98146 1-342)
# T1 construct: GPCR homologue of Kaposi's sarcoma-associated herpesvirus (kGPCR); Probably HA-tagged like the other constructs, but no tag and no primary antibody is named for the proximity ligation assay; also called HUVEC/kGPCR
# T1 sequence: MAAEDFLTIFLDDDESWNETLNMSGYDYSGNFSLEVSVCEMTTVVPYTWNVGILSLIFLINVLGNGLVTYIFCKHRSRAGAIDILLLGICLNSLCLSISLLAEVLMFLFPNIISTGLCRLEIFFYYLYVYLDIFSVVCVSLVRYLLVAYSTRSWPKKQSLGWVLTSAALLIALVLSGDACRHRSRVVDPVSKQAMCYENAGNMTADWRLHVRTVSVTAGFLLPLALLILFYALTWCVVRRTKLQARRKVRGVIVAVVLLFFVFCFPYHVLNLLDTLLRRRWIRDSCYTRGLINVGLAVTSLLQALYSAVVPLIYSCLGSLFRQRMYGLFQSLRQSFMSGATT
# Test: proximity ligation; Duolink in situ kit on fixed HUVEC-Vector or HUVEC-kGPCR stable cells; spots counted in more than 100 cells of each group
# Conditions: partners not purified
binder,measurement,value
B1,fold of proximity ligation fluorescent spots over control HUVEC cells,> 10 fold
